T1: Full length mouse CD98hc on CHO cells (mouse, UniProt P10852 1-526)
T1 construct: CHO cells stably overexpressing it; also called CHO-mouse CD98hc; CHO-mCD98hc
T1 sequence: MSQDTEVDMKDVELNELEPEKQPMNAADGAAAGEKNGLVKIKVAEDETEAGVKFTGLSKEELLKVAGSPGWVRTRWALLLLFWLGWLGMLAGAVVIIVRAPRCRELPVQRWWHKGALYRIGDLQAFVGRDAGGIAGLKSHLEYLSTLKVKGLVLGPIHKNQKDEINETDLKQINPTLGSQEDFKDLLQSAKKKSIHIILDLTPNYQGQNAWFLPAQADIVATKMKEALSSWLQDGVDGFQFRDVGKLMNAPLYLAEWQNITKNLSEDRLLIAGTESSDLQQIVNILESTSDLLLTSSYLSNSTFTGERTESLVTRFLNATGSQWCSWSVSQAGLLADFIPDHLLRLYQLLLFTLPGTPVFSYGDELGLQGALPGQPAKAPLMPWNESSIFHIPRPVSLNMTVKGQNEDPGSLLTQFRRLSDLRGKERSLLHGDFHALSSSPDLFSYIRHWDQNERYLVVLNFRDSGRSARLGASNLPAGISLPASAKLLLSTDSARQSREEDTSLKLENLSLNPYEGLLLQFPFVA

T2: huCD98hc ECD Avi-His (human, UniProt P08195 105-529)
T2 construct: biotinylated on the Avi tag where captured on streptavidin; also called Human CD98-AVI-His; Human CD98hc-AVI-His
T2 sequence: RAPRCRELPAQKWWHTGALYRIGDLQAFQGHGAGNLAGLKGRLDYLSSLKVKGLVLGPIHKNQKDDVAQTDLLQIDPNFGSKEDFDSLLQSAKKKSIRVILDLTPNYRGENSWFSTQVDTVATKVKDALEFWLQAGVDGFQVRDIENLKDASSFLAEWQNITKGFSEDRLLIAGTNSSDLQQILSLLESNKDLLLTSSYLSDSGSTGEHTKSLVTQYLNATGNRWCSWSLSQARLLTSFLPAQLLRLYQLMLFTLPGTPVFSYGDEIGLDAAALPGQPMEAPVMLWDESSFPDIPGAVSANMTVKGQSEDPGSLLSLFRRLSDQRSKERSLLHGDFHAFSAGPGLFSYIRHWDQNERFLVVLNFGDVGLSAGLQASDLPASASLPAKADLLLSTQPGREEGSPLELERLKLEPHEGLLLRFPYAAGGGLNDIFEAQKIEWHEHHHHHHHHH

T3: muCD98hc ECD Avi-His (mouse, UniProt P10852 100-526)
T3 construct: biotinylated on the Avi tag where captured on streptavidin; also called Mouse CD98-AVI-His; Mouse CD98hc-AVI-His
T3 sequence: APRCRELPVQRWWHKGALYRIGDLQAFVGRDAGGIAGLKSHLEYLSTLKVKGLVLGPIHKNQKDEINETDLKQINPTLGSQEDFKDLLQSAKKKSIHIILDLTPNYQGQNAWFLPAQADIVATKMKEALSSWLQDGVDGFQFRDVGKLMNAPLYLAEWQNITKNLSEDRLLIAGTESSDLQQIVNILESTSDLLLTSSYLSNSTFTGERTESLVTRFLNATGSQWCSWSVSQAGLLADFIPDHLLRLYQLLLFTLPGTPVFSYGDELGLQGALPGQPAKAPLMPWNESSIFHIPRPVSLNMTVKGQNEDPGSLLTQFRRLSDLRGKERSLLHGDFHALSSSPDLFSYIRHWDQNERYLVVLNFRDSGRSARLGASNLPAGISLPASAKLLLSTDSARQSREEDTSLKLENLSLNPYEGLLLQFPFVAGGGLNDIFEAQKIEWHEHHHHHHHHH


Columns and labels:
[1] = molecular target: T1, Full length mouse CD98hc on CHO cells; assay: FACS, hybridoma supernatant
Text: The IgG positive hybridoma supernatants (898 in total) were initially screened for their ability to differentially bind CHO cells overexpressing human or mouse CD98hc cells compared to CHO parental cells by FACS. Overexpressing cells were harvested, washed, and labeled with various concentrations and combinations of CellTrace cell proliferation dyes CFSE and Violet (ThermoFisher, Cat #C34554 and Cat #34557, respectively) to create uniquely barcoded cell populations. Barcoded cells (5×10⁴ of each cell population) were aliquoted into 96-well U-bottom plates and incubated with 50 μl of hybridoma cell culture supernatant or 1 μg/ml of commercially available purified mouse anti-human CD98hc monoclonal antibody (Sigma Aldrich, Cat #SAB 4700503) and rat anti-mouse CD98hc antibody (Bio-Rad Laboratories, Hercules, CA, Cat #MCA2684) on ice for 30 minutes. […] Following this secondary antibody incubation, the cells were again washed twice with ice-cold FACS buffer and resuspended in a final volume of 50 μl of FACS buffer containing 0.25 μl/well propidium iodide (BD Biosciences, Cat #556463). Binding intensity on cells was analyzed using the FACS Canto system (BD Biosciences), with sorting gates drawn to exclude dead (i.e., propidium iodide-positive) cells. For each barcoded cell population, the ratio of APC Mean Fluorescence Intensity (MFI) divided by secondary antibody MFI was calculated for each anti-CD98hc hybridoma supernatant tested and reported in Table 5.

huCD98hc ECD Avi-His = molecular target: T2, huCD98hc ECD Avi-His; assay: ELISA, hybridoma supernatant
Summary of the method: (§1)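 Binding of hybridoma supernatants (30 min, room temperature) was read as 450 nm absorbance after TMB development and sulfuric acid quench. Antigens, Avi-His-tagged CD98hc from human, cyno or mouse plus human TfR, were captured at 1 μg/ml onto streptavidin-coated wells for 1 h.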

muCD98hc ECD Avi-His = molecular target: T3, muCD98hc ECD Avi-His; assay: ELISA, hybridoma supernatant
Summary of the method: as §1

Row | binding result [1] | OD450 (huCD98hc ECD Avi-His) | OD450 (muCD98hc ECD Avi-His) | Binder
1 | no binding | 1.64 | 0.079 | CD98HC.04.018 (antibody, V domains shown, hybridoma IgG) VH: QIQLVQSGPELKKPGETVKISCKASGYTFRNYGMNWVKQAPGKGLKWMGWINTYTGEPTYAEDFKGRFAFSLETSASTAYLQINKLKNEDEATYFCARGEAHWYFDVWGAGTTVTVSS VL: QIVLTQSPAIMSASLGERVTMTCTASSSVSSSYLYWYQQKPGSSPKLWIYSIFNLASGVPARFSGSGSGTSYSLTISSMEAEDAATYYCHQYHRSPPTFGGGTKLEIK
2 | no binding | 1.64 | 0.0786 | CD98HC.04.012 (antibody, V domains shown, hybridoma IgG) VH: QVQLQQSGADLVRPGDSVKISCKGSGYTFTDNTLHWVKQSHAKSLEWIGVISPYYGDASYNQKFKGKATMTVDKSSSTAYMELARLTSEDSAIYYCARVGGRLRLGYYFDHWGQGTTLTVSS VL: NIMMTQSPSSLAVSAGEKVTMNCKSSQSVLSSSNQKNYLAWYQQKPGQSPKLLIYWASTRESGVPARFTGSGSGTDFSLTITSVQAEDLAVYYCLQYLSSYTFGGGTKLEIK
3 | no binding | 1.36 | 0.0554 | CD98HC.04.022 (antibody, V domains shown, hybridoma IgG) VH: EVQLQQSGAELVKPGASVKLSCTASGFNIKDTFMHWMKQRPEQGLEWIGRIDPANANTRYDPKFQGKATITTDTSSNTAYLQLSSLTSEDTAVYYCARDVYYDVWGAGTTVTVSS VL: DILMTQSPSSMSVSLGDTVTITCHASQGISSNIGWLQQKPGRSFKGLIYHGSNLEDGVPSRFTGSGSGTDYSLTISGLESEDFADYYCVQYAQFPRTFGGGTKLEIQ
4 | no binding | 1.16 | 0.067 | CD98HC.04.011 (antibody, V domains shown, hybridoma IgG) VH: DVQLQESGPDLVKPSQSLSLTCSVTVYSFTSVYSWHWIRQFPGNKLEWMGYIHDSGTTNYNPSLKSRISVTRDTSKNQFFLQLNSVTTEDTATYYCARGRPYGYDGFAYWGQGTLVTVSA VL: DIQMTQSSSYLSVSLGDRVTITCKASDHINNWLAWYQQKPGNAPRLLITGAVNLETGVPSRFSGSGSGKDYTLSITSLQTEDVATYYCQQYWSIPRTFGGGTNLEIK
5 | no binding | 1.51 | 0.0764 | CD98HC.04.045 (antibody, V domains shown, hybridoma IgG) VH: QIQLVQSGPELKKPGETVKISCKASGYSITNFGMNWVKQAPGKGLKWMGWVNTYTGEPTYADDFKGRFAFSLETSASTASLQINNLKNEDTATYFCTRSVITYTMDYWGQGTSVTVSS VL: DIQLTQSPSSLSASLGERVSLTCRASQEISGYLSWLQQKPDGTIKRLIYAASTLDSGVPKRFSGSRSGSDYSLTISSLESEDFADYYCLQYASYPRTFGGGTKVEIK
6 | no binding | 1.24 | 0.13 | CD98HC.04.006 (antibody, V domains shown, hybridoma IgG) VH: EVNLVESGGDLVQPGGSLRLSCATSGFTFTDYFMSWVRQPPGKALEWLGFIRNKAYGYTTEYSASVKGRFTISRDNSQSIFYLQMNTLRLEDSATYYCARGPFISTAPFAYWGQGTLVTVSA VL: DIVMSQSPSSLAVSVGETVTMSCKSSQSLLYSSNQKNYLAWYQQKPGQSPKLLIYWGSTRESGVPDRFTGSGSGTDFTLTISSVKAEDLAVYYCQHYYGYPWTFGGGTKLEIK

Second part, the binder before the results:

Row | Binder | binding result [1] | OD450 (huCD98hc ECD Avi-His) | OD450 (muCD98hc ECD Avi-His)
7 | CD98HC.04.010 (antibody, V domains shown, hybridoma IgG) VH: QVQLQQSGAELMKPGASVKISCKATGYTFSTYWIEWVKQRPGHGLEWIGEILPGSGTTTYNEKFKGKATFTADTSSNTAYMQLSSLTSEDSAVYYCARRTVYYRYEGIDYWGQGTTLTVSS VL: QIVLTQSPAIMSASPGEKVTITCSASSSVSYMFWFQQRPGTSPKLWIYTTSNLASGVPARFSGSGSGTSYSLTISRMEAEDAATYYCQQKNNYPFTFGSGTKLEIK | no binding | 1.48 | 0.0907
8 | CD98HC.04.009 (antibody, V domains shown, hybridoma IgG) VH: QVQLKESGPGLVAPSQSLSITCTVSGFSLTSYGVHWVRQPPGKGLEWLGVIWAGGSTYYNSALMSRLSISKDNAKSQVLLKMSSLQTDDTAMYYCARDNYGGVYLDVWGAGTTVTVSS VL: ENVLTQSPASMSASPGEKVTMTCRASSSVSSSYLHWYQQKSGASPKLWIYSTSNLASGVPARFSGSGSGTSYSLTISSVEAEDAATYYCQQYSGYPLTFGSGTKLEIK | no binding | 0.991 | 0.0688
9 | CD98HC.03.002 (antibody, V domains shown, hybridoma IgG) VH: DVQLVESGGGLVQPGGSRKLSCAASGFTFSTFGMHWVRQAPEKGLEWVAYISGGSTNIYYADTVKGRFTISRDNPKNTLFLQMTSLRSEDTAMYYCARETTLLATNFDYWGQGTTLTVSS VL: DIQMTQTTSSLSASLGDRVTISCRASQDISNYLNWYQQKPDGTVKLLIYYTSRLHSGVPSRFSGSGSGTDYSLTISNLEQEDIATYFCQQGSTLPRTFGGGTKLEIK | no binding | 1.53 | 0.0802
10 | CD98HC.04.003 (antibody, V domains shown, hybridoma IgG) VH: QVQLQQSGAELAKPGASLKMSCKASGYTFTDYYIHWVKQRPGQDLEWIGYINPNSAYTDSNQKFKDKATLTADKSSNTAYMQLSSLTSEDSAVYYCARKGHFYAPSFAYWGQGTLVTVSA VL: DIQMTQTTSSLSASLGDRVTISCRASQDISNYLNWYQQKPDGTVKLLIYYTSRLHSGVPSRFSGSGSGADYSLTISNLQQEDIATYFCQQGDTLPYTFGGGTKLEIE | no binding | 1.6 | 0.0565
11 | CD98HC.03.031 (antibody, V domains shown, hybridoma IgG) VH: QVQLQQSGAELVRPGVSVKISCKASGYTFTDYAMHWVKQSHAKSLEWIGVISTYYGDTTYNQKFKDKATMTVDKSSSTAYLELARLTSEDSAIYYCARVWLLSYAMDNWGQGTSVTVSS VL: DIVMTQSQRFMSTSVGDGVRITCKASQNVRTAVAWYQQKPGQSPKALINLAPNRHTGVPDRFTARGSGTDFTLTISNVQSEDLADYFCLQHWNYPLTFGAGTKLELK | no binding | 1.06 | 0.0843
12 | CD98HC.04.013 (antibody, V domains shown, hybridoma IgG) VH: EVQLVESGGDLGMPGGSLKLSCAASGFALSGYDMSWVRQTPDKRLEWVAYLSSGGGSTYYPYTVKGRFTISRDNAQNTLYLQMSSLKSEDTAIYYCARHSEVRPWFGYWGQGTLVTVSA VL: DIVMSQSPSSLAVSVGEKVTLTCKSSQSLLYSGNQKNYLAWYQQNPGQSPKLLIYWASTRESGVPDRFTGSGSGTDFTLTISSVKAEDLAVYYCQQYYTYPPTFGAGTKLGLK | no binding | 1.17 | 0.0717
